Data published in US20240209334A1, “SMALL-MOLECULE-ACTIVATED GLYCAN MODIFYING ENZYMES AND USES THEREOF” (President and Fellows of Harvard College, priority 2022, published 2024).

B1: OGA-intein(C181): miniOGA with the 4-HT-responsive evolved intein inserted at C181 (protein)
chain: MEQKLISEEDLAIAMVQKESQATLEERESELSSNPAASAGASLEPPAAPAPGEDNPAGAGGAAVAGAAGGARRFLCGVVEGFYGRPWVMEQRKELFRRLQKWELNTYLYAPKDDYKHRMFWREMYSVEEAEQLMTLISAAREYEIEFIYAISPGLDITFSNPKEVSTLKRKLDQVSQFGCRSFALLFDDIDHNMCLAEGTRIFDPVTGTTHRIEDVVDGRKPIHVVAAAKDGTLLARPVVSWFDQGTRDVIGLRIAGGAIVWATPDHKVLTEYGWRAAGELRKGDRVAGPGGSGNSLALSLTADQMVSALLDAEPPILYSEYDPTSPFSEASMMGLLTNLADRELVHMINWAKRVPGFVDLTLHDQAHLLERAWLEILMIGLVWRSMEHPGKLLFAPNLLLDRNQGKCVEGMVEIFDMLLATSSRFRMMNLQGEEFVCLKSIILLNSGVYTFLSSTLKSLEEKDHIHRALDKITDTLIHLMAKAGLTLQQQHQRLAQLLLILSHIRHMSNKGMEHLYSMKYKNVVPLYDLLLEMLDAHRLHAGGSGASRVQAFADALDDKFLHDMLAEGLRYSVIREVLPTRRARTFDLEVEELHTLVAEGVVVHNCAADKEVFSSFAHAQVSITNEIYQYLGEPETFLFCPTEYCGTFCYPNVSQSPYLRTVGEKLLPGIEVLWTGPKVVSKEIPVESIEEVSKIIKRAPVIWDNIHANDYDQKRLFLGPYKGRSTELIPRLKGVLTNPNCEFEANYVAIHTLATWYKSNMNGVRKDVVMTDSEDSTVSIQIKLENEGSDEDIETDVLYSPQMALKLALTEWLQEFGVPHQYSSRGSGSGSGSGSGSGSGEKPLYTAEPVTLEDLQLLADLFYLPYEHGPKGAQMLREFQWLRANSSVVSVNCKGKDSEKIEEWRSRAAKFEEMCGLVMGMFTRLSNCANRTILYDMYSYVWDIKSIMSMVKSFVQWLGCRSHSSAQFLIGDQEPWAFRGGLAGEFQRLLPIDGANDLFFQPP

Key:
[1] = test system: O-GlcNAcylated proteins in HEK293T cells; assay: Quantitative proteomics after enrichment for O-GlcNAc; type: cell-based, Homo sapiens; conditions: 25 μM OSMI-4b for 10 hours
Experimental: To further assess the spatial deglycosylation mediated by these subcellularly localized OGA-intein variants, quantitative proteomics was performed following enrichment for O-GlcNAc (38) on cell lysates after expression of C181-NLS with 4-HT treatment for 2 hours and 24 hours, respectively, or the OGT inhibitor OSMI-4b (3) for comparison (FIG. 4E and FIGS. 12A, 12B, 12C).
Chemoenzymatic labeling of O-GlcNAcylated proteins. Purification of GalT1 (Y289L) enzyme and labeling of O-GlcNAcylated proteins with GalNAz were performed according to the procedure of Hsich-Wilson and co-workers (51). Briefly, cell samples in 15-cm dishes were harvested and washed by PBS once. Cells were lysed in 2% SDS/PBS by heating at 95° C. for 5 minutes, followed by sonication. Protein concentrations were determined and then subjected to reduction and alkylation using 25 mM DTT at 95° C. for 5 minutes and 50 mM iodoacetamide at room temperature for 1 hour, respectively. Proteins were precipitated using the methanol/chloroform mix (aqueous phase: CH3OH:CHCl3=4:4:1) and resuspended in 1% SDS, 20 mM HEPES (pH 7.9) buffer with a concentration of 3.75 mg/mL. […]
Quantitative chemical proteomics. […]

[2] = test system: Nup62; assay: Screen of intein insertion sites: OGA-intein variants co-expressed with Nup62 in HEK293T cells, immunoblot; type: cell-based
From the text: OGA is a multi-domain hydrolase responsible for O-GlcNAc removal in mammalian cells. Based on the reported crystal structures of OGA (27-29), the essential domains of the long splice variant of OGA were identified, and it was confirmed that the HAT domain is not required for its deglycosidase activity in cells (13). In addition, replacement of the disordered region between the catalytic domain and the stalk domain with a glycine-serine flexible linker (GS-linker) maintained its activity in live cells in the absence of the C-terminal HAT domain (13, 28). This variant, termed miniOGA, was selected as the initial template for engineering with an intein due to its smaller size and simpler structure (FIG. 2A). […] Inserting this evolved 4-HT-responsive intein into a site that abolishes miniOGA activity until protein splicing has taken place could result in a conditionally active OGA for O-GlcNAc removal under the control of 4-HT. As intein splicing would leave behind a single cysteine residue (22), and to minimize alterations on OGA protein sequence, cysteine residues across different structural domains and the GS-linker at miniOGA were selected as the candidate insertion sites, thus generating OGA-intein fusion constructs for nine positions in total (C62, C166, C181, C220, C316, C596, C631, C663, and the GS-linker) (FIG. 2A). The nine OGA-intein variants were transiently expressed in HEK293T cells together with a model glycoprotein Nup62. Cells were treated with or without 1 μM 4-HT for 24 hours after transfection. OGA-intein variants were then detected by the Myc tag to verify the expected splicing, and their enzymatic activities were evaluated by detection of O-GlcNAc on the substrate Nup62 following immunoprecipitation.
(§1) Immunoprecipitation and Immunoblot assays. […]
(§2) For immunoblotting analysis, proteins were transferred to a nitrocellulose membrane using an iBlot system (Invitrogen). […] Immunoblot images were captured using Azure Imager C600 and analyzed with Fiji ImageJ for converting all IR fluorescence western blot images to grayscale images.

[3] = test system: Nup62; assay: Spatial deglycosylation of cytoplasmic Nup62 by OGA-intein(C181) variants in HEK293T cells; type: cell-based; conditions: cytoplasmic Nup62 co-expressed
Experimental: (§3) Next, it was assessed whether these OGA-intein(C181) variants enable selective spatial deglycosylation in live cells. As O-GlcNAc affects the subcellular localization of many proteins (37), Nup62 was used as a model cytoplasmic substrate, which was previously primarily localized in the cytoplasm when transiently overexpressed in HEK293T cells independent of the O-GlcNAcylation state (13) (FIGS. 11A, 11B). Nup62 was co-expressed with three OGA-intein(C181) variants (C181-WT, C181-NLS, and C181-NES) in HEK293T cells, and Nup62 was enriched for O-GlcNAc measurement. […] Next, Nup62 was localized to the nucleus by attachment to an NLS tag (Nup62-NLS), and a similar coexpression and 4-HT-triggered activation was performed with OGA-intein(C181) variants. […] The fluorescent intensity of OGA-intein variants also show a strong correlation to the localization of Nup62, indicating the desired subcellular distribution (FIGS. 11A-C).
as §1, §2

[4] = test system: Nup62-NLS; assay: Spatial deglycosylation of nuclear Nup62-NLS by OGA-intein(C181) variants in HEK293T cells; type: cell-based; conditions: nuclear Nup62-NLS co-expressed
Experimental: as §3, §1, §2

[5] = test system: global O-GlcNAc level in MCF-7 cells; assay: Immunoblot of global O-GlcNAc level and splicing in MCF-7 stable cell lines; type: cell-based, human; conditions: MCF-7 cells stably expressing the variant
From the text: In addition to serving as an activator for intein splicing, 4-HT is also known as the active metabolite of tamoxifen, an FDA-approved drug for treating breast cancer patients. Breast cancer cells also have elevated OGT expression (39) and decreased levels of OGA (40, 41), resulting in elevated O-GlcNAcylation in the proteome. OGT is usually required for tumor growth and metastasis (39), and low OGA expression is correlated with poor survival in breast cancer patients (FIG. 13). The ER positive breast cancer-derived MCF-7 cell line is sensitive to tamoxifen and 4-HT, resulting in suppression of cell proliferation, yet drug resistance occurs after long-term treatment (42). Previous studies also show evidence that upregulation of O-GlcNAcylation protects MCF-7 cells from tamoxifen-induced cell death (43). To determine if reduction of O-GlcNAc sensitized MCF-7 cells to 4-HT treatment, it was assessed whether 4-HT induced inhibition of breast cancer cell proliferation and OGA-intein activation worked synergistically to accelerate cell death (FIG. 5A). […] Next, these two cell lines were treated with 4-HT at increasing concentrations, and cell viability was measured after 48 hours. […] Given that 4-HT promoted MCF-7 cell death through apoptosis (43), the apoptosis of these cells under 4-HT treatment was further analyzed through flow cytometry analyses following Annexin V and DAPI staining. […]

Molecule | change of O-GlcNAc on nuclear and cytoplasmic proteins [1] | intein splicing / spliced product on 4-HT treatment ([2]; 1 μM 4-HT for 24 hours, Myc tag detection) | deglycosylation activity in the presence of 4-HT ([2]; co-expressed Nup62, 1 μM 4-HT for 24 hours) | OGA activity (deglycosylation of Nup62) in the absence of 4-HT ([2]; co-expressed Nup62, without 4-HT) | removal of O-GlcNAc from Nup62 after 4-HT-triggered activation [3] | 4-HT-induced deglycosylation of Nup62-NLS [4] | global O-GlcNAc level after adding 4-HT [5]
CCOC(=O)CN(Cc1cccs1)C(=O)[C@H](NS(=O)(=O)c1cc2ccc(=O)[nH]c2cc1Cl)c1ccccc1OC [OSMI-4b] | mild reduction of O-GlcNAc on both nuclear and cytoplasmic proteins |  |  |  |  |  | 
B1 |  | yielding the active spliced product | high deglycosylation activity | little activity | removed O-GlcNAc from Nup62 | 4-HT-induced deglycosylation | decreased global O-GlcNAc level
